The test addresses human mpl (myeloproliferative leukemia receptor, TPO receptor) expressed on stably transfected BaF3 cells (human) (UniProt P40238). Put plainly: cell-based or functional assay.

Substance “human thrombopoietin (TPO), expressed in COS cells from cDNA cloned from human fetal liver; used as TPO-containing COS supernatant (from UniProt P40225 22-353) (ligand)” came in with a proliferation of mpl-expressing BaF3 cells (activity of the supernatant) of 300000 U/ml.

The record behind these values is patent US6916470.
